What was measured:
[1] = biological target: T1, mouse HVEM (mouse, UniProt Q80WM9); experiment: ELISA
T1 chain: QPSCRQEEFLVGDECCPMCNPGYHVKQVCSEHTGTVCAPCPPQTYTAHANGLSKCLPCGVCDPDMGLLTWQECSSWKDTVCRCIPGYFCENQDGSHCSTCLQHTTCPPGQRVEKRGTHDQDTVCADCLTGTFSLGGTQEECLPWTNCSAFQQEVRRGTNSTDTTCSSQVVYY

[2] = biological target: T2, human HVEM (human, UniProt Q92956); experiment: SPR
T2 chain: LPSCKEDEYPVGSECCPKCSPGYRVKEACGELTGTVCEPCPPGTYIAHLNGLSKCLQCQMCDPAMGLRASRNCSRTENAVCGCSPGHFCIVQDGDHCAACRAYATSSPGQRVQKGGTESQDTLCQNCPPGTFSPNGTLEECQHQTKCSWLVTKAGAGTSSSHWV

B1: 22G5 (protein)
chain 1: EVQLQESGGGLVQPGGSRKLSCAASGFTFSSFGMHWVRQAPEKGLEWVAFISSGSSSIYYADTVKGRFTISRDNPRNTL
chain 2: DVVMTQTPLSLPVSLGDQASISCRSSQSLVHSNGNTYFHWYLQKPGQSPKLLIYKVSNRFSGVPDRFSGSGSGTDFTLKI
- binding result [1]: no binding

B2: 26C3 (protein)
chain 1: QVQLQQPGSELVRPGASVKLSCKASGYTFTSYWMHWVKQRPGQGLEWIGDIYPGSDGTNYDEKFKSKATLTVDTSSSTAY
chain 2: DIQMTQTTSSLSASLGDRVTISCRASQDISNSLNWYQQKPDGTVKLLIYYTSRLHSGVPSRFSGSGSGTDYSLTISNLE
- binding result [1]: no binding

B3: 52B7 (protein)
chain 1: QVQLKQSGPGLVQPSQSLSITCTVSGFSLTIYGVHWIRQSPGKGLEWLGVIWTGGNTDYNAAFMSRLSITKDNSKSQVFF
chain 2: EIVLTQSPALMAASPGEKVTITCSVSSNISSGNLHWYQQKSETSPKPWIYGTSNLASGVPVRFSGSRSGTSYSLTISSME
- Kd [2]: 0.705 pM
- binding result [1]: no binding
